Earlier results as cited in publication PMC5290461.

Molecular target: integrin beta1A cytoplasmic tail (Homo sapiens) (UniProt P05556)
Assay: NMR

Chain of UniProt P05556 (P05556 752-798): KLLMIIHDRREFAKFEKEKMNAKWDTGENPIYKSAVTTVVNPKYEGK

Row | Kd [µM] | Substance
1 | 652 | talin2 F3 (from UniProt Q71LX4)
2 | 491 | talin1 F3 (from UniProt P26039)
